Reference: PMC10936676, “ATG9B is a tissue-specific homotrimeric lipid scramblase that can compensate for ATG9A” (Autophagy, 2023)

Molecular target: the molecule itself
Assay: cryo-EM structure; single-particle cryo-EM of purified ATG9B in LMNG-CHS micelles; 20 mM Tris-HCl, 200 mM NaCl, pH 8.5; reconstructions with C3 and without symmetry

B1: 3×FLAG-6×His-TEV-ATG9B (full-length human ATG9B), purified from Expi293 cells (natural protein, UniProt Q674R7-1 1-924, looked up)
chain: MVSRMGWGGRRRRLGRWGDLGPGSVPLLPMPLPPPPPPSCRGPGGGRISIFSLSPAPHTRSSPSSFSPPTAGPPCSVLQGTGASQSCHSALPIPATPPTQAQPAMTPASASPSWGSHSTPPLAPATPTPSQQCPQDSPGLRVGPLIPEQDYERLEDCDPEGSQDSPIHGEEQQPLLHVPEGLRGSWHHIQNLDSFFTKIYSYHQRNGFACILLEDVFQLGQFIFIVTFTTFLLRCVDYNVLFANQPSNHTRPGPFHSKVTLSDAILPSAQCAERIRSSPLLVLLLVLAAGFWLVQLLRSVCNLFSYWDIQVFYREALHIPPEELSSVPWAEVQSRLLALQRSGGLCVQPRPLTELDIHHRILRYTNYQVALANKGLLPARCPLPWGGSAAFLSRGLALNVDLLLFRGPFSLFRGGWELPHAYKRSDQRGALAARWGRTVLLLAALNLALSPLVLAWQVLHVFYSHVELLRREPGALGARGWSRLARLQLRHFNELPHELRARLARAYRPAAAFLRTAAPPAPLRTLLARQLVFFAGALFAALLVLTVYDEDVLAVEHVLTAMTALGVTATVARSFIPEEQCQGRAPQLLLQTALAHMHYLPEEPGPGGRDRAYRQMAQLLQYRAVSLLEELLSPLLTPLFLLFWFRPRALEIIDFFHHFTVDVAGVGDICSFALMDVKRHGHPQWLSAGQTEASLSQRAEDGKTELSLMRFSLAHPLWRPPGHSSKFLGHLWGRVQQDAAAWGATSARGPSTPGVLSNCTSPLPEAFLANLFVHPLLPPRDLSPTAPCPAAATASLLASISRIAQDPSSVSPGGTGGQKLAQLPELASAEMSLHVIYLHQLHQQQQQQEPWGEAAASILSRPCSSPSQPPSPDEEKPSWSSDGSSPASSPRQQWGTQKARNLFPGGFQVTTDTQKEPDRASCTD
notes: ATG9B, human, canonical isoform 1 (Q674R7-1), full length; residues 191-674 visible in the cryo-EM map; A TEV site lies between the 6×His tag and ATG9B; no cleavage is described; Eluted from the anti-FLAG resin with 3×FLAG peptide; In LMNG-CHS micelles; also called ATG9B homotrimer; pcDNA3.1-3×FLAG-6×His-TEV-ATG9B; source: Expi293, transiently transfected, extracted into detergent micelles, …
**Q.** How did the “stoichiometry N” value turn out when B1 was run?
**A.** 3
